Laboratory results from PMC4820748, “Structural basis for the membrane association of ankyrinG via palmitoylation” (Scientific Reports, 2016).

Target: the molecule itself
Assay: crystal structure; oxidized form, C121 crystal; sitting-drop vapor diffusion at 20 °C; reservoir 10 mM MgCl2-hexahydrate, 50 mM Tris-HCl (pH 7.5), 1.6 M (NH4)2SO4; asymmetric unit holds one dimeric molecule

B1: AnkG (R1-R5), head-section of the membrane-binding domain of rat ankyrin-G (domain or fragment)
chain: GTKSDANASYLRAARAGHLEKALDYIKNGVDVNICNQNGLNALHLASKEGHVEVVSELLQREANVDAATKKGNTALHIASLAGQAEVVKVLVTNGANVNAQSQNGFTPLYMAAQENHLEVVRFLLDNGASQSLATEDGFTPLAVALQQGHDQVVSLLLENDTKGK
notes: two extra residues, Gly-Thr, left at the N-terminus after the TEV cleavage; In the oxidized form two chains are linked by a disulfide bond between the two Cys70 residues; in the reduced form Cys70 is free; also called ANK3 (R1-R5); AnkG palmitoylation domain; source: E. coli BL21(DE3)pLysS, purified (nickel column, TEV cleavage, superdex200 gel filtration); not shown: His tag, N-terminal, cleaved
  stoichiometry N: 2
